Source: article PMC2688778 (Structure (London, England : 1993), 2009)

Legend:
Test in all cases: fluorescence anisotropy
RecE564 Y785A = molecular target: T1, RecE564 Y785A (Escherichia coli K12, UniProt P15032 564-866, Y785A)
T1 sequence: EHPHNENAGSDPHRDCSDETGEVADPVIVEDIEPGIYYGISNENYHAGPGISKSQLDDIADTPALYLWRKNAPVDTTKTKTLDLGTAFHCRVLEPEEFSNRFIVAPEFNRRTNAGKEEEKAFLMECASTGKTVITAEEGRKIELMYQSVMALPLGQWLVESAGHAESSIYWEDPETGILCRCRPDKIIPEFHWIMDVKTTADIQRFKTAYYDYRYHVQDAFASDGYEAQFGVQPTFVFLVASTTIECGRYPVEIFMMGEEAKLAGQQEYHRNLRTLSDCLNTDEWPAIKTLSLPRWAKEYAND

RecE606 P658L = molecular target: T2, RecE606 P658L (Escherichia coli K12, UniProt P15032 606-866, P658L)
T2 sequence: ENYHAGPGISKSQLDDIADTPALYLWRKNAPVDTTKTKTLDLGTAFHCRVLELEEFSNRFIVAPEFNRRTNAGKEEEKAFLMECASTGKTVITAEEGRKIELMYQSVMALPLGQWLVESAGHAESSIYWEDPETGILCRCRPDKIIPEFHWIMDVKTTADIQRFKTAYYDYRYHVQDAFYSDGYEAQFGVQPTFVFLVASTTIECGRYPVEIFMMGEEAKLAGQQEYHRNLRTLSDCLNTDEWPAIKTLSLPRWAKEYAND

RecE564 H652A = molecular target: T3, RecE564 H652A (Escherichia coli K12, UniProt P15032 564-866, H652A)
T3 sequence: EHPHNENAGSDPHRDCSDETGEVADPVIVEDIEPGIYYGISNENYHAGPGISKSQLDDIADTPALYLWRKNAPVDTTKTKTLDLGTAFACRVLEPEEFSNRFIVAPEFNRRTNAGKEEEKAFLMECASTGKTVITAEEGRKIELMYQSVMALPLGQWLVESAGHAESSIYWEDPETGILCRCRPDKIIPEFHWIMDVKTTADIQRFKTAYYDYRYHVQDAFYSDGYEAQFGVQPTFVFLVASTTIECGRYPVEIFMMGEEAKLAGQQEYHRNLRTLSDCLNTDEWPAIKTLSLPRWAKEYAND

RecE564 E657A = molecular target: T4, RecE564 E657A (Escherichia coli K12, UniProt P15032 564-866, E657A)
T4 sequence: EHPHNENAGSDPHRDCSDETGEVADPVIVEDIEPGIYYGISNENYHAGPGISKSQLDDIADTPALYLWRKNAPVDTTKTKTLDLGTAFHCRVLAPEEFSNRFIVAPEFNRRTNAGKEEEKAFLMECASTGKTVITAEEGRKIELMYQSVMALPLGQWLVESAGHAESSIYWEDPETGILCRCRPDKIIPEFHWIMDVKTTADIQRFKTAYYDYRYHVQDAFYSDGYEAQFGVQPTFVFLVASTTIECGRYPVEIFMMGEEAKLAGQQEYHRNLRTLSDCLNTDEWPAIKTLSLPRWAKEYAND

RecE564 S617A = molecular target: T5, RecE564 S617A (Escherichia coli K12, UniProt P15032 564-866, S617A)
T5 sequence: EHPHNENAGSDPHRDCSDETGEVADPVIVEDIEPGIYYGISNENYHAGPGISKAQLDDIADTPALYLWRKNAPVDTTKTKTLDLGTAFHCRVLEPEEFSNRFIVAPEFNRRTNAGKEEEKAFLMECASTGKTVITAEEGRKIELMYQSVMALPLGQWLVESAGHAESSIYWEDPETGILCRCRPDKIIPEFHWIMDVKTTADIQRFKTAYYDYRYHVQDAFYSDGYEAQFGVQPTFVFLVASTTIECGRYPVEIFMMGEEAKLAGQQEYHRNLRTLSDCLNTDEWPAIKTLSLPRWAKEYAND

RecE564 F661A = molecular target: T6, RecE564 F661A (Escherichia coli K12, UniProt P15032 564-866, F661A)
T6 sequence: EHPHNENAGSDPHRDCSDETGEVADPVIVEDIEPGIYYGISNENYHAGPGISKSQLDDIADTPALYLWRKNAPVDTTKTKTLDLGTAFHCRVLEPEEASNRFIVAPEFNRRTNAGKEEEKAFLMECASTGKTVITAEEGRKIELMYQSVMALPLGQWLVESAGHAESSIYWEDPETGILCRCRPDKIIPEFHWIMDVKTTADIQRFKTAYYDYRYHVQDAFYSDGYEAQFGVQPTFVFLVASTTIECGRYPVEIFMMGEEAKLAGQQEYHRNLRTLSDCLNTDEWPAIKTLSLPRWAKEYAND

RecE564 Q781A = molecular target: T7, RecE564 Q781A (Escherichia coli K12, UniProt P15032 564-866, Q781A)
T7 sequence: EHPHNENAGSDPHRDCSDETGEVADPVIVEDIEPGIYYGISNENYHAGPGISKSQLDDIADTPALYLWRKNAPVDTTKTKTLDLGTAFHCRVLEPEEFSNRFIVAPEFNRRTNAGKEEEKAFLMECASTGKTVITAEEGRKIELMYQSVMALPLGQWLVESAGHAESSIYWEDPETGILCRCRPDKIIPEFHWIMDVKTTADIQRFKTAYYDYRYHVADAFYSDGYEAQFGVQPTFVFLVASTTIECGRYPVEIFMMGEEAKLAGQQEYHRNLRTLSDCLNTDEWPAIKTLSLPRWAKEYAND

B1: F25 (dsDNA)
DNA 1: TAGAGCTTAATTGCTGAATCTGGTG
DNA 2: CACCAGATTCAGCAATTAAGCTCTA
RecE564 Y785A
  Kd: 98 ± 9 nM
RecE606 P658L
  Kd: 110 ± 20 nM
RecE564 H652A
  Kd: 130 ± 10 nM
RecE564 E657A
  Kd: 90 ± 10 nM
RecE564 S617A
  Kd: 150 ± 20 nM
RecE564 F661A
  Kd: 118 ± 8 nM
RecE564 Q781A
  Kd: 70 ± 20 nM
